Residue numbers refer to the chain shown, from its start.
B1: 252 (protein)
chain: MTTRTRILTAFLSLLAANACAADAAPAAPHTVVLRAARMFDGASGKLVDHPQLTIVGNKIVRIAQGDKAEVPAGAEVVDLGDATLLPGFIDAHVHLSGQSSDNWYGDFFDNMMRFPAEQALYGAYYARITLEAGFTSVRDVGSTDWVALGLRNAIDAGKVPGPRMLVSNYAVGSTGGHADQDPIPPHKLPLAGPLQGVCNGPEECRAAVRYQIKYGANVIKFMPSGGVLSLSDPVDAPELSQDEMNAVIGESHAWGRKVAAHAHGDKAAKMAVAAGVDSIEHGSFIEDDTLRAMKAKNVYLVPTISAIAHVEEKIGTFPPVIAEKGRAAAAHLRQTFRHAVQIGVPIALGTDAGVGAHGSEAREFRYMVENGLTPAQALLAGTANAARLLGTFDRVGTLEAGKLADVVAVPGNPIADITVTERPLFVMKDGVVVRRDAVR
modifications: exemplary polypeptide
B2: 100 (protein)
chain: B1 chain with F109L, E361N
modifications: exemplary polypeptide
B3: 276 (protein)
chain: B1 chain with G176S, E361N
modifications: exemplary polypeptide
B4: 99 (protein)
chain: B1 chain with F109V, E361N
modifications: exemplary polypeptide
B5: 279 (protein)
chain: B1 chain with A192V, E361N
modifications: exemplary polypeptide
B6: 101 (protein)
chain: B1 chain with M112I, E361N
modifications: exemplary polypeptide
B7: 65 (protein)
chain: B1 chain with E361W
modifications: exemplary polypeptide
B8: 277 (protein)
chain: B1 chain with A192L, E361N
modifications: exemplary polypeptide
B9: 86 (protein)
chain: B1 chain with A307T, E361N
modifications: exemplary polypeptide
B10: 278 (protein)
chain: B1 chain with A192M, E361N
modifications: exemplary polypeptide
B11: 314 (protein)
chain: B1 chain with I308V, L333I, E361N
modifications: exemplary polypeptide
B12: 293 (protein)
chain: B1 chain with I308V, A329V, E361N
modifications: exemplary polypeptide
B13: 258 (protein)
chain: B1 chain with S284D, A329T, E361N
modifications: exemplary polypeptide
B14: 257 (protein)
chain: B1 chain with S284D, A329S, E361N
modifications: exemplary polypeptide
B15: 264 (protein)
chain: B1 chain with Y105R, E361N
modifications: exemplary polypeptide
B16: 298 (protein)
chain: B1 chain with G354A, G356Y, E361N
modifications: exemplary polypeptide
B17: 266 (protein)
chain: B1 chain with D107R, E361N
modifications: exemplary polypeptide
B18: 92 (protein)
chain: B1 chain with F318M, E361N
modifications: exemplary polypeptide
B19: 254 (protein)
chain: B1 chain with D110K, K188D, E361N
modifications: exemplary polypeptide
B20: 283 (protein)
chain: B1 chain with V235D, E361N
modifications: exemplary polypeptide
B21: 93 (protein)
chain: B1 chain with A329G, E361N
modifications: exemplary polypeptide
B22: 90 (protein)
chain: B1 chain with G354A, E361N
modifications: exemplary polypeptide
B23: 265 (protein)
chain: B1 chain with G106P, E361N
modifications: exemplary polypeptide
B24: 263 (protein)
chain: B1 chain with Y105N, E361N
modifications: exemplary polypeptide
B25: 302 (protein)
chain: B1 chain with G354P, V355L, E361N
modifications: exemplary polypeptide
B26: 271 (protein)
chain: B1 chain with M113R, E361N
modifications: exemplary polypeptide

Test: OTA detoxification activity assay (specific activity, fluorescence reduction ex/em 390/450 nm)
Type: biochemical
Conditions: pH 6.0; SEQ ID NO: 1 = 100%
Method: To determine the specific activity of recombinant target polypeptides produced e.g. as described in Example 2 above in units per liter (U/L), ochratoxin A (OTA) detoxification activity assays were performed. One unit is defined as the amount of enzyme necessary for degradation of 1 μmol or OTA in 1 min when using a starting OTA concentration of […].
OTA detoxification activity assays were set up in a final volume of the reaction mixture of […], containing the recombinant enzyme preparation (preferably diluted to yield a volumetric activity of 1-10 mU/L), and 200 ng/mL OTA in 100 mM sodium phosphate buffer.
Specific activities were determined at pH 6.0 and pH 7.5. As soon as all components of the reaction mixture were mixed, OTA degradation was followed at 37° C. on a fluorescence spectrophotometer (BioTek Synergy H1 MFD Multimode microplate reader) by following the reduction in fluorescence at ex/em 390 nm/450 nm. For work performed at pH 6.0 and 7.5, a 100 mM sodium phosphate buffer was used.
For calculation of the specific activity, the initial linear part of the recorded fluorescence reduction curve was used. In addition to the fluorescence-based method described above, OTA degradation was also determined by using the HPLC-MS method as described by Dellafiora et al. 2020, Toxins 12, 258, essentially confirming the fluorescence-based results. Genes encoding either of the indicated SEQ ID NOs are expressed as described herein and the specific activities for the obtained polypeptide preparation are exemplarily shown in Table 8. Analogously, enzymatic activities using either ochratoxin B, C or TA as substrate or can be found.

Molecule | Specific OTA detoxification activities in % compared to the enzyme of SEQ ID NO: 1, pH 6.0 [%]
B1 | 32
B2 | 43
B3 | 13
B4 | 52
B5 | 23
B6 | 82
B7 | 4
B8 | 6
B9 | 4
B10 | 32
B11 | 71
B12 | 16
B13 | 29
B14 | 34
B15 | 46
B16 | 15
B17 | 11
B18 | 37
B19 | 32
B20 | 29
B21 | 20
B22 | 99
B23 | 20
B24 | 19
B25 | 26
B26 | 6

Same assay, conditions: pH 7.5; SEQ ID NO: 1 = 100%

Molecule | Specific OTA detoxification activities in % compared to the enzyme of SEQ ID NO: 1, pH 7.5 [%]
B1 | 13
B2 | 28
B3 | 30
B4 | 58
B5 | 36
B6 | 89
B7 | 10
B8 | 14
B9 | 9
B10 | 19
B11 | 33
B12 | 18
B13 | 25
B14 | 15
B15 | 44
B16 | 17
B17 | 22
B18 | 52
B19 | 15
B20 | 23
B21 | 17
B22 | 162
B23 | 11
B24 | 11
B25 | 23
B26 | 23

— patent US20240352438A1, “MEANS AND METHODS FOR DETOXIFYING OCHRATOXIN A” (DSM Austria GmbH, priority 2021, published 2024)
